B1: RON Sema-PSI-IPT1–4 (Glu25-Ser956) (domain or fragment)
chain: EDWQCPRTPYAASRDFDVKYVVPSFSAGGLVQAMVTYEGDRNESAVFVAIRNRLHVLGPDLKSVQSLATGPAGDPGCQTCAACGPGPHGPPGDTDTKVLVLDPALPALVSCGSSLQGRCFLHDLEPQGTAVHLAAPACLFSAHHNRPDDCPDCVASPLGTRVTVVEQGQASYFYVASSLDAAVAASFSPRSVSIRRLKADASGFAPGFVALSVLPKHLVSYSIEYVHSFHTGAFVYFLTVQPASVTDDPSALHTRLARLSATEPELGDYRELVLDCRFAPKLVPRGSPEGGQPYPVLRVAHSAPVGAQLATELSIAEGQEVLFGVFVTGKDGGPGVGPNSVVCAFPIDLLDTLIDEGVERCCESPVHPGLRRGLDFFQSPSFCPNPPGLEALSPNTSCRHFPLLVSSSFSRVDLFNGLLGPVQVTALYVTRLDNVTVAHMGTMDGRILQVELVRSLNYLLYVSNFSLGDSGQPVQRDVSRLGDHLLFASGDQVFQVPIQGPGCRHFLTCGRCLRAWHFMGCGWCGNMCGQQKECPGSWQQDHCPPKLTEFHPHSGPLRGSTRLTLCGSNFYLHPSGLVPEGTHQVTVGQSPCRPLPKDSSKLRPVPRKDFVEEFECELEPLGTQAVGPTNVSLTVTNMPPGKHFRVDGTSVLRGFSFMEPVLIAVQPLFGPRAGGTCLTLEGQSLSVGTSRAVLVNGTECLLARVSEGQLLCATPPGATVASVPLSLQVGGAQVPGSWTFQYREDPVVLSISPNCGYINSHITICGQHLTSAWHLVLSFHDGLRAVESRCERQLPEQQLCRLPEYVVRDPQGWVAGNLSARGDGAAGFTLPGFRFLPPPHPPSANLVPLKPEEHAIKFEYIGLGAVADCVGINVTVGGESCQHEFRGDMVVCPLPPSLQLGQDGAPLQVCVDGECHILGRVVRPGPDGVPQS
B2: RON Sema (Glu25-Gly524) (domain or fragment)
chain: EDWQCPRTPYAASRDFDVKYVVPSFSAGGLVQAMVTYEGDRNESAVFVAIRNRLHVLGPDLKSVQSLATGPAGDPGCQTCAACGPGPHGPPGDTDTKVLVLDPALPALVSCGSSLQGRCFLHDLEPQGTAVHLAAPACLFSAHHNRPDDCPDCVASPLGTRVTVVEQGQASYFYVASSLDAAVAASFSPRSVSIRRLKADASGFAPGFVALSVLPKHLVSYSIEYVHSFHTGAFVYFLTVQPASVTDDPSALHTRLARLSATEPELGDYRELVLDCRFAPKLVPRGSPEGGQPYPVLRVAHSAPVGAQLATELSIAEGQEVLFGVFVTGKDGGPGVGPNSVVCAFPIDLLDTLIDEGVERCCESPVHPGLRRGLDFFQSPSFCPNPPGLEALSPNTSCRHFPLLVSSSFSRVDLFNGLLGPVQVTALYVTRLDNVTVAHMGTMDGRILQVELVRSLNYLLYVSNFSLGDSGQPVQRDVSRLGDHLLFASGDQVFQVPIQG

Key:
[1] = biological target: RON Sema-PSI-IPT1–4 (Glu25-Ser956) (human) (UniProt Q04912); assay: SPR; same sensorgrams as the kinetic analysis (RON constructs amine-coupled to CM5, MSPβ as analyte, 10 mM Na-HEPES pH 8.0, 150 mM NaCl, 0.005% P20, 25°C); Kd from an equilibrium model
[2] = biological target: RON Sema-PSI-IPT1 (Glu25-Glu683) (human) (UniProt Q04912); assay: as above
[3] = biological target: RON Sema (Glu25-Gly524) (human) (UniProt Q04912); assay: as above
[4] = biological target: RON Sema-PSI (Glu25-Pro568) (human) (UniProt Q04912); assay: as above
[5] = biological target: RON Sema-PSI-IPT1–4 (Glu25-Ser956) (human) (UniProt Q04912); assay: SPR; Biacore T100; RON constructs amine-coupled to a CM5 chip; MSPβ as analyte (wild type 5-500 nM, R689C 32-2000 nM); 10 mM Na-HEPES pH 8.0, 150 mM NaCl, 0.005% P20, 25°C; global fit to a 1:1 Langmuir kinetic model
[6] = biological target: RON Sema-PSI-IPT1 (Glu25-Glu683) (human) (UniProt Q04912); assay: as above
[7] = biological target: RON Sema (Glu25-Gly524) (human) (UniProt Q04912); assay: as above
[8] = biological target: RON Sema-PSI (Glu25-Pro568) (human) (UniProt Q04912); assay: as above
RON constructs = assay: SPR; dimeric MSPβ R689C on RON constructs; method and conditions not told in the sentence (SPR is the paper's only binding method)
[9] = biological target: MSPβ R689C (Phe465-Gly711, C672S, R689C) (human, UniProt P26927 465-711, C672S | R689C); assay: SPR; solution competition
[10] = biological target: wild type MSPβ (macrophage stimulating protein β-chain with the adjoining 19 residues of the α-chain, … (human, UniProt P26927 465-711, C672S)); assay: SPR; solution competition

Molecule | Kd [1] [nM] | Kd [2] [nM] | Kd [3] [nM] | Kd [4] [nM] | Kd [5] [nM] | koff [5] [s⁻¹] | kon [5] [M⁻¹ s⁻¹] | Kd [6] [nM] | koff [6] [s⁻¹] | kon [6] [M⁻¹ s⁻¹] | Kd [7] [nM] | koff [7] [s⁻¹] | kon [7] [M⁻¹ s⁻¹] | Kd [8] [nM] | koff [8] [s⁻¹] | kon [8] [M⁻¹ s⁻¹] | Kd (RON constructs) [nM] | Kd [9] [nM] | Kd [10] [nM]
MSPβ R689C (Phe465-Gly711, C672S, R689C) (from UniProt P26927 465-711) (domain or fragment) | 158 | 154 | 139 | 244 | 157 | 0.055 | 350000 | 148 | 0.129 | 870000 | 170 | 0.081 | 480000 | 233 | 0.062 | 270000 |  |  | 
dimeric MSPβ R689C (from UniProt P26927 465-711) (complex) |  |  |  |  |  |  |  |  |  |  |  |  |  |  |  |  | 3.7 to 4.9 |  | 
wild type MSPβ (macrophage stimulating protein β-chain with the adjoining 19 residues of the α-chain, Phe465-Gly711, C672S) (from UniProt P26927 465-711) (domain or fragment) | 22.6 | 17.8 | 16.4 | 32 | 13.5 | 0.023 | 1.69e+06 | 15.1 | 0.027 | 1.76e+06 | 13.3 | 0.031 | 2.31e+06 | 21.2 | 0.028 | 1.33e+06 |  |  | 
B1 |  |  |  |  |  |  |  |  |  |  |  |  |  |  |  |  |  | 381 | 52.8
B2 |  |  |  |  |  |  |  |  |  |  |  |  |  |  |  |  |  |  | 17.6

— article PMC3210151 (2011)
